According to article doi:10.1101/2020.09.29.318733:

Assays:
Kohinoor = assay: SEC
Padron = assay: SEC

stoichiometry N (Kohinoor)	stoichiometry N (Padron)	Substance
2		Kohinoor
	4	Padron
